Results from patent EP2216341A1, “Transferrin variants and conjugates” (Novozymes Biopharma UK Limited, priority 2009, dated 2010).

What was measured:
[1] = system: K562 erythroleukemic cells; experiment: 55Fe uptake from labeled diferric transferrin in erythroleukemic K562 cells; assay type: cell-based, human; conditions: 25 minutes at 37°C
Method: Human plasma-derived apo-transferrin (Calbiochem 616419, tissue culture grade, pyrogen-free) is supplied lyophilised from 10mM phosphate buffer, pH7.4. The transferrin mutein is expressed, purified and quantified as described above.
For iron-55 uptake from labeled diferric transferrin, K562 erythroleukemic cells, cultured in RPMI cell culture medium under standard conditions (bicarbonate-buffered, 5% (v/v) CO2, antibiotics, 10% (v/v) fetal calf serum) are washed with serum-free medium containing HEPES-buffer and 1 mg/ml of bovine serum albumin and used at a concentration of 10 million cells/ml in this medium. The samples tested are prepared as equimolar concentrations of apo-transferrin mutein. Apo-transferrin mutein is loaded with iron according to a standard procedure (Bates and Schlabach, J Biol Chem, 248, 3228-3232, 1973) using ferric nitrilotriacetate as iron source. Typically 50µl of 1 M NaClO4 is added to 450µl of the transferrin mutein stock-solution (pH is alkaline to neutral). The ^55Fe -NTA-loading-buffer is prepared by mixing 8.5µl 50mM NTA (pH 8.25), 18.9µl 0.1M Tris, 98.8µl Millipore-purified water and 7.5µl ^55FeCl3 in 0.5 N HCl (NEN products). 500µl of transferrin mutein is carefully mixed (dropwise) with the ^55Fe -NTA-loading-buffer and then 310µl of 5mM Hepes. NaOH/0.1M NaClO4 is added. The mixture is incubated at 4°C for 60 min following which it is deslated on a PD-10 column (containing Sephadex G-25) and dialysed. The PD-10 column is equilibrated with 5ml of equilibration buffer (5mM Hepes/NaOH, 0.1M NaClO4, 0.1 g BSA (Amresco)) then washed three times with 5ml of wash buffer (5mM Hepes/NaOH, 0.1M NaClO4). […]
Increasing concentrations of human plasma transferrin or the transferrin mutein sample (0, 25, 100, 200, 400, 800, 1600 nM), labeled with ^55Fe, are mixed with 25 µl of medium. […] The lysates are neutralized with 1 M HCl after overnight lysis, mixed with Readysolv Scintillation cocktail and counted in the Packard Liquid Scintillation Counter. […]

[2] = molecular target: T1, transferrin receptor 1 (TfR1) (Homo sapiens, UniProt P02786); experiment: Transferrin receptor 1 binding by Surface Plasmon Resonance (SPR, Biacore); conditions: fluorescein conjugated sample
T1 construct: purchased AbD Serotec 9110-300
T1 sequence (P02786 whole entry): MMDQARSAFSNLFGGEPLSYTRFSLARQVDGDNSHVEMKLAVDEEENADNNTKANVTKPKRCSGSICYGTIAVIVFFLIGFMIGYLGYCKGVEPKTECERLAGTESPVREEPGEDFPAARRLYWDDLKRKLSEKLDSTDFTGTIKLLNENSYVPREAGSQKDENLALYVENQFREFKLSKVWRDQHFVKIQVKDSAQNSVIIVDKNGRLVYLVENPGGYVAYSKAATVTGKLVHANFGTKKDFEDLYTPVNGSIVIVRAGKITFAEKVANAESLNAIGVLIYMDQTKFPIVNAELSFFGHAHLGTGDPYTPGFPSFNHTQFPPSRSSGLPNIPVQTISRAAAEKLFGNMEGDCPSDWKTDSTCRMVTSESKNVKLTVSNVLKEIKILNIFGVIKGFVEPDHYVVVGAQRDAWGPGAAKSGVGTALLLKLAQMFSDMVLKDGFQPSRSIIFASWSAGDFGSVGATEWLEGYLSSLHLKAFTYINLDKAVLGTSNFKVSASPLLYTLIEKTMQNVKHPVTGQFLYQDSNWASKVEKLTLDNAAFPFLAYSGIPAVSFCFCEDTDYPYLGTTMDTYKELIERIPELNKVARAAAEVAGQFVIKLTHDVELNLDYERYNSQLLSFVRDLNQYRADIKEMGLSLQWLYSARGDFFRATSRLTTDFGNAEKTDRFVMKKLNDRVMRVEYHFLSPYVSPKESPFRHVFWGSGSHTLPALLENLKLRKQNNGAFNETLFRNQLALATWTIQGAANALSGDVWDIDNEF
From the text: The receptor binding capability of the recombinant transferrin variants can be determined by Surface Plasmon Resonance (SPR) analysis. The binding activity of a transferrin sample to a transferrin receptor can be measured using surface plasmon resonance (SPR) a non-invasive optical technique in which the SPR response is a measure of change in mass concentration at the detector surface as molecules bind or dissociate. A sample is sent onto the surface of the sensor chip via a micro flow system at a constant flow rate. In this analysis, if the transferrin sample is able to bind to the Transferrin Receptor the mass on the surface sensor chip is increased due to binding between Transferrin Receptor and Transferrin molecules creating a surface plasmon wave, and a shift of the SPR signal proportional to the binding quantity can be detected as a change in the resonance unit (RU). […]
The binding capacity of human serum transferrin to human trabnsferrin receptor 1 may be measured by SPR. […]
The receptor binding capability of the recombinant transferrin variants was assessed by Surface Plasmon Resonance (SPR) analysis. The binding activity of a transferrin sample to transferrin receptor can be measured using surface plasmon resonance (SPR) a non-invasive optical technique in which the SPR response is a measure of change in mass concentration at the detector surface as molecules bind or dissociate. […]

B1: Fluorescein conjugated thio-transferrin (S28C, S415A, T613A): Thiotransferrin (S28C, S415A, T613A) conjugated with fluorescein (conjugate, UniProt P02787 20-698, looked up, variant S28C S415A T613A)
Serotransferrin: VPDKTVRWCAVSEHEATKCQSFRDHMKCVIPSDGPSVACVKKASYLDCIRAIAANEADAVTLDAGLVYDAYLAPNNLKPVVAEFYGSKEDPQTFYYAVAVVKKDSGFQMNQLRGKKSCHTGLGRSAGWNIPIGLLYCDLPEPRKPLEKAVANFFSGSCAPCADGTDFPQLCQLCPGCGCSTLNQYFGYSGAFKCLKDGAGDVAFVKHSTIFENLANKADRDQYELLCLDNTRKPVDEYKDCHLAQVPSHTVVARSMGGKEDLIWELLNQAQEHFGKDKSKEFQLFSSPHGKDLLFKDSAHGFLKVPPRMDAKMYLGYEYVTAIRNLREGTCPEAPTDECKPVKWCALSHHERLKCDEWSVNSVGKIECVSAETTEDCIAKIMNGEADAMSLDGGFVYIAGKCGLVPVLAENYNKADNCEDTPEAGYFAIAVVKKSASDLTWDNLKGKKSCHTAVGRTAGWNIPMGLLYNKINHCRFDEFFSEGCAPGSKKDSSLCKLCMGSGLNLCEPNNKEGYYGYTGAFRCLVEKGDVAFVKHQTVPQNTGGKNPDPWAKNLNEKDYELLCLDGTRKPVEEYANCHLARAPNHAVVTRKDKEACVHKILRQQQHLFGSNVADCSGNFCLFRSETKDLLFRDDTVCLAKLHDRNTYEKYLGEEYVKAVGNLRKCSTSSLLEACTFRRP
modifications: fluorescein conjugate
Specific iron ptake Bmax ([1]; 55Fe-labeled sample 0-1600 nM, specific uptake (unspecific binding with hundredfold excess unlabeled diferric transferrin accounted for)): 2430±125 fmol^55Fe/10^6 cells 25min
Total Iron Uptake Bmax ([1]; 55Fe-labeled sample 0-1600 nM, total uptake): 3294±170 fmol^55Fe/10^6 cells x 25min
Kd ([1]; specific uptake, read-out: Specific iron ptake Kd x): 154 ± 32 nM
ability to bind to transferrin receptor 1 (measured by SPR) [2]: able to bind to transferrin receptor 1
